Target: alkaline phosphatase heterodimer IAP/PALP (ALPI/ALPP) on LoVo cells (Homo sapiens, UniProt P09923;P05187 P09923:20-503,P05187:23-506)
Assay: flow; apparent Kd on LoVo cells
Conditions: tags: endogenous, LoVo colon cancer cells, label: fluorescent dye
Protocol: A dish of colon cancer LoVo cells in the logarithmic growth phase was digested with 0.2% EDTA in PBS into a monodisperse cell suspension, and then divided into several aliquots. The aliquots were incubated with a fluorescent molecule-labeled aptamer probe solution for 30 min and washed twice with washing buffer, and then the fluorescence intensity on the cell surface was measured with BD FACSalibur flow cytometer. The average fluorescence intensity on the cell surface was plotted against the concentration of the aptamer, and the equilibrium dissociation constant Kd of the aptamer was calculated according to the following formula: Y=BₘₐₓX (Kd+X).

alkaline phosphatase heterodimer IAP/PALP (ALPI/ALPP) on LoVo cells, sequence (P09923 20-503, chain 1 of 2): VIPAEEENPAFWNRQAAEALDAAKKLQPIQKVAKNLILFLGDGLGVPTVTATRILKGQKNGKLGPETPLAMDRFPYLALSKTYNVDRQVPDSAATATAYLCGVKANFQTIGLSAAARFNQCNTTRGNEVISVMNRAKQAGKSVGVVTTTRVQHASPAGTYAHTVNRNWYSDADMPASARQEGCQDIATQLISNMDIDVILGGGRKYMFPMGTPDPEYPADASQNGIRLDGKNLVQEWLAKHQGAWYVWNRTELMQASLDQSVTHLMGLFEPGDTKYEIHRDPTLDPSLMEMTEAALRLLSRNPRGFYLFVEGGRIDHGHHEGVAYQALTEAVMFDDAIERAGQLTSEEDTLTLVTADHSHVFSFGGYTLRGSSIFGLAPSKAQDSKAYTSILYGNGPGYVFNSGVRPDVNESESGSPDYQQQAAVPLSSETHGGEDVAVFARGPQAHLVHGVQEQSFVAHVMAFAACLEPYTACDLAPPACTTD
alkaline phosphatase heterodimer IAP/PALP (ALPI/ALPP) on LoVo cells, sequence (P05187 23-506, chain 2 of 2): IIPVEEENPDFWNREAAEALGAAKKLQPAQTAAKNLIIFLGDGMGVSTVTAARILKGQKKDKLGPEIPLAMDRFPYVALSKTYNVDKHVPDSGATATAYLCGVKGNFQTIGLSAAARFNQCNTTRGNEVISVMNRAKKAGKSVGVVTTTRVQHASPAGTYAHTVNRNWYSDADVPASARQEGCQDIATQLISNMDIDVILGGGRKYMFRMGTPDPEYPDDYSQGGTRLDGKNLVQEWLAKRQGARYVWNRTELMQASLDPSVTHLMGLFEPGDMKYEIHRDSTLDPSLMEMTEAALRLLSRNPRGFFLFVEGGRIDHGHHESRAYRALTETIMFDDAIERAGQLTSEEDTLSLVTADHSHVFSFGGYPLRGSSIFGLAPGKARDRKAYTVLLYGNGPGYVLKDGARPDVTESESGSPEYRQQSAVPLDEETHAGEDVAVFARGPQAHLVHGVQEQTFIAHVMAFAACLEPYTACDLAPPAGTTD

B1: BG2 with primer sequences (ssDNA)
DNA: ACGCTCGGATGCCACTACAGTCAAGGAATAGGGGTCGGTGTGGGTGGTTATGATTGGCTTCCTTGTCTCATGGACGTGCTGGTGAC
- Kd: 2.9 nM

Binder: GGGGTCGGTGTGGGTGGTTATGATTGG (ssDNA) [BG2e]
- Kd: 9.3 nM

Binder: TAAGAAATAGGGGTCGGTGTGGGTGGTTATGATTGGCTTTCTTA (ssDNA) [BG2 stem-replaced sequence 4]
- Kd (stem-loop): 5.7 nM

Binder: GATAACATAGGGGTCGGTGTGGGTGGTTATGATTGGCTGTTATC (ssDNA) [BG2 stem-replaced sequence 5]
- Kd (stem-loop): 3 nM

Binder: CAAGGAATAGGGGTCGGTGTGGGTGGTTATGATTGGCTTCCTTG (ssDNA, PS at nucleotides 1-7 and the last 7 at the 3' end) [thio-modified BG2]
- Kd (stem-loop): 3.5 nM

— patent publication US20200362349, “APPLICATION OF APTAMER IN RECOGNITION AND BINDING OF ALKALINE PHOSPHATASE HETERODIMER OR TUMOR DETECTION” (INSTITUTE OF CHEMISTRY, CHINESE ACADEMY OF SCIENCES, published 2020)
